Laboratory results: US20100144634A1 (published 2010)

What was measured:
[1] = biological target: T1, von Willebrand factor (VWF), purified plasma-derived, multimeric, native (UniProt P04275 764-2813); assay: pull-down on VWF-Affi-gel 10, western blot with anti-V5 (FIG. 5B); the microtiter result is given with a literature citation
T1 construct: mature; human is implied; also called pvWF; plasma VWF
Method: FIG. 5. Binding of ADAMTS13 (or variants) to VWF immobilized on solid surfaces. A. Binding of ADAMTS13 and variants to VWF immobilized on a microtiter plate: FL-A13, delCUB and MDTCS (0-200 nM) were incubated without (control) or with VWF (10 μg/ml, 100 μl/well) immobilized on a microtiter plate for 1 h. The bound ADAMTS13 and variants were determined by mouse anti-V5 IgG, followed by rabbit anti-mouse IgG, peroxidase-conjugated and OPD-H₂O₂. The KD (S) was determined by fitting the data into non-linear regression. B. Binding of ADAMTS13 and variants to immobilized VWF on Affi-gel 10: FL-A13, delCUB, MDTCS and metalloprotease domain (M) (˜50 nM) were incubated at 37° C. for 1 h without (−) or with (+) VWF covalently immobilized onto the Affi-gel 10. After extensive washing with TBS and 20 mM Tris-HCl, pH 7.5, […], the bound ADAMTS13 and variants were eluted from the beads with SDS-gel sample buffer and determined by Western blot with anti-V5. The amount of input FL-A13, delCUB, and MDTCS is the same with the signal of only FL-A13 shown in lane 1 (IN).
The binding of ADAMTS13 to immobilized Affi-gel 10 was also described previously²². […] The bound FL-A13 and variants were eluted from the beads by boiling them at 100° C. for 10 min and detected by Western blotting with anti-V5 IgG as described previously^{22;24;29}.

[2] = biological target: T2, murine vWF (murine, UniProt Q8CIZ8 764-2813, limits assumed); assay: microtiter binding assay, immobilised murine vWF
T2 construct: also called immobilized murine vWF
T2 sequence (Q8CIZ8 764-2813 limits assumed): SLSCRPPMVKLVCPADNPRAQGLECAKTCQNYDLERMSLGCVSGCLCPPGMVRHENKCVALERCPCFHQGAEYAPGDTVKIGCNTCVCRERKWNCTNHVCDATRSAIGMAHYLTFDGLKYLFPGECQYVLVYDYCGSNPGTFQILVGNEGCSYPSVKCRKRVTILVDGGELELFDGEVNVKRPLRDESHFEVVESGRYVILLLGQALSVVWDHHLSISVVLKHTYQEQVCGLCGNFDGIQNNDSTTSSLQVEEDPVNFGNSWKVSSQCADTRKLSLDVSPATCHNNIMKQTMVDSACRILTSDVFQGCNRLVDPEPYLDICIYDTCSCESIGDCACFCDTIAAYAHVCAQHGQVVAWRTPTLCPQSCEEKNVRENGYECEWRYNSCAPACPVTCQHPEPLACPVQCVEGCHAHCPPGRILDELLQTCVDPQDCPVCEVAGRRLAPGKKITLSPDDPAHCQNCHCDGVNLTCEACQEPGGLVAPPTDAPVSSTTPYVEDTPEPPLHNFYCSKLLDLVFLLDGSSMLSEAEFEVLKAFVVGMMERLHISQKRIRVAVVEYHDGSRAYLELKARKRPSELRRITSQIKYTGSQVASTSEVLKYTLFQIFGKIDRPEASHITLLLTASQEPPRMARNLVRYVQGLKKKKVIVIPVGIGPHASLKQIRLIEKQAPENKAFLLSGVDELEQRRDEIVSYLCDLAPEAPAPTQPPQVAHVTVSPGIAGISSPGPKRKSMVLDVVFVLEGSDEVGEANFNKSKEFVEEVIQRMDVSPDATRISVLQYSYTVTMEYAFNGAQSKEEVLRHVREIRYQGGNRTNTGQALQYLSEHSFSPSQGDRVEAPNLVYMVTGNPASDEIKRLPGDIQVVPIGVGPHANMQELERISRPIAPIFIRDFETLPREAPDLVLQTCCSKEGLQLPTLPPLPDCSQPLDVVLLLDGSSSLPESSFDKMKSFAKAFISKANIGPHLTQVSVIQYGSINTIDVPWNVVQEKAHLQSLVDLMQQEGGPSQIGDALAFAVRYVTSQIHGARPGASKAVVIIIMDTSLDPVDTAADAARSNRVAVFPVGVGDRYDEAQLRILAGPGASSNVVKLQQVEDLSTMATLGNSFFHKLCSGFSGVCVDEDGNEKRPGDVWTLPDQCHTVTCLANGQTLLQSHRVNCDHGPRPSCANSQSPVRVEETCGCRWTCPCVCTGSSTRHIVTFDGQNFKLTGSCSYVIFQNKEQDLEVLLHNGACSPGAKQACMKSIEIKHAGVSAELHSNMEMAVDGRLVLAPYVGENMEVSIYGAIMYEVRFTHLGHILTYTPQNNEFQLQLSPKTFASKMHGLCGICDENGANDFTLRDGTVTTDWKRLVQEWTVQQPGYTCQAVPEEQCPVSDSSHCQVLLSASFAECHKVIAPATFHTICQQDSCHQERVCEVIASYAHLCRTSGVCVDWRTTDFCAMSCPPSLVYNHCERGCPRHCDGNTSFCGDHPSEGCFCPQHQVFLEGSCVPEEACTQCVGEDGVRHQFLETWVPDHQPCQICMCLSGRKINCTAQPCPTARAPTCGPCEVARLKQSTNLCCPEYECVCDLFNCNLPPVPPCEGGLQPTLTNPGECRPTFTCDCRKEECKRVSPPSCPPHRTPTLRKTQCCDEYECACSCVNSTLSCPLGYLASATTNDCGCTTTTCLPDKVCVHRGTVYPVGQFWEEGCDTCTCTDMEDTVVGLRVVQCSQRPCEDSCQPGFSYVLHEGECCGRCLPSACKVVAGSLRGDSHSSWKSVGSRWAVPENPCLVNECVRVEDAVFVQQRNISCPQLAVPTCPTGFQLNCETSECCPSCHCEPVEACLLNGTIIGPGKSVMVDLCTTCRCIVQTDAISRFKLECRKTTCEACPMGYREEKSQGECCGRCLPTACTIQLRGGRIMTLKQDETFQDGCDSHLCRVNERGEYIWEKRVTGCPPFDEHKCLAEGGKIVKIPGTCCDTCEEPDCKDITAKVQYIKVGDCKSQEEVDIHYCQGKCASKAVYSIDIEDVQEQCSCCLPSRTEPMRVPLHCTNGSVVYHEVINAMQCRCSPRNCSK

binding result [1]	Kd [2]	Binder
no binding	–	ADAMTS13 metalloprotease domain alone (enzyme, UniProt Q76LX8 75-289, looked up, domain: metalloprotease domain) AAGGILHLELLVAVGPDVFQAHQEDTERYVLTNLNIGAELLRDPSLGAQFRVHLVKMVILTEPEGAPNITANLTSSLLSVCGWSQTINPEDDTDPGHADLVLYITRFDLELPDGNRQVRGVTQLGGACSPTWSCLITEDTGFDLGVTIAHEIGHSFGLEHDGAPGSGCGPSGHVMASDGAAPRAGLAWSPCSRRQLLSLLSAGRARCVWDPPRPQ
–	~1.7 nM	canine FVIII-SQ (other, UniProt O18806 20-2343, looked up, also called canine B-domain deleted factor VIII) ATRKYYLGAVELSWDYMQSDLLSALHADTSFSSRVPGSLPLTTSVTYRKTVFVEFTDDLFNIAKPRPPWMGLLGPTIQAEVYDTVVIVLKNMASHPVSLHAVGVSYWKASEGAEYEDQTSQKEKEDDNVIPGESHTYVWQVLKENGPMASDPPCLTYSYFSHVDLVKDLNSGLIGALLVCKEGSLAKERTQTLQEFVLLFAVFDEGKSWHSETNASLTQAEAQHELHTINGYVNRSLPGLTVCHKRSVYWHVIGMGTTPEVHSIFLEGHTFLVRNHRQASLEISPITFLTAQTFLMDLGQFLLFCHIPSHQHDGMEAYVKVDSCPEEPQLRMKNNEDKDYDDGLYDSDMDVVSFDDDSSSPFIQIRSVAKKHPKTWVHYIAAEEEDWDYAPSGPTPNDRSHKNLYLNNGPQRIGKKYKKVRFVAYTDETFKTREAIQYESGILGPLLYGEVGDTLLIIFKNQASRPYNIYPHGINYVTPLHTGRLPKGVKHLKDMPILPGEIFKYKWTVTVEDGPTKSDPRCLTRYYSSFINLERDLASGLIGPLLICYKESVDQRGNQMMSDKRNVILFSVFDENRSWYLTENMQRFLPNADVVQPHDPEFQLSNIMHSINGYVFDNLQLSVCLHEVAYWYILSVGAQTDFLSVFFSGYTFKHKMVYEDTLTLFPFSGETVFMSMENPGLWVLGCHNSDFRNRGMTALLKVSSCNRNIDDYYEDTYEDIPTPLLNENNVIKPRSFSQNPPVSKHHQREITVTTLQPEEDKFEYDDTFSIEMKREDFDIYGDYENQGLRSFQKKTRHYFIAAVERLWDYGMSRSPHILRNRAQSGDVQQFKKVVFQEFTDGSFTQPLYRGELNEHLGLLGPYIRAEVEDNIVVTFKNQASRPYSFYSSLISYDEDEGQGAEPRRKFVNPNETKIYFWKVQHHMAPTKDEFDCKAWAYFSDVDLEKDVHSGLIGPLLICRSNTLNPAHGRQVTVQEFALVFTIFDETKSWYFTENLERNCRAPCNVQKEDPTLKENFRFHAINGYVKDTLPGLVMAQDQKVRWYLLSMGSNENIHSIHFSGHVFTVRKKEEYKMAVYNLYPGVFETVEMLPSQVGIWRIECLIGEHLQAGMSTLFLVYSKKCQTPLGMASGHIRDFQITASGQYGQWAPKLARLHYSGSINAWSTKDPFSWIKVDLLAPMIIHGIMTQGARQKFSSLYVSQFIIMYSLDGNKWHSYRGNSTGTLMVFFGNVDSSGIKHNIFNPPIIAQYIRLHPTHYSIRSTLRMELLGCDFNSCSMPLGMESKAISDAQITASSYLSSMLATWSPSQARLHLQGRTNAWRPQANNPKEWLQVDFRKTMKVTGITTQGVKSLLISMYVKEFLISSSQDGHNWTLFLQNGKVKVFQGNRDSSTPVRNRLEPPLVARYVRLHPQSWAHHIALRLEVLGCDTQQPA
